These results are taken from patent publication US20190060453A1 (ONCOMED PHARMACEUTICALS, published 2019).

Residue numbers refer to the chain shown, from its start.

Test [1] has as its target T1, DLL4 antigen protein (recombinant fragment of the extracellular domain of human DLL4, amino acids 1-522, Fc- … (human, UniProt Q9NR61 27-522)).
T1 construct: also called Human DLL4 Antigen; not shown: human Fc-tag or histidine-tag
Nature of the test: Biacore; antibody purified by protein A; DLL4 form and format not stated.

Test [2] has as its target T1, DLL4 antigen protein (recombinant …). As to the kind of experiment: ELISA of conditioned medium, HEK 293 cells cotransfected with the murine 21M18 light chain. How it is done: The functionality of each candidate variant humanized heavy and light chain was tested by cotransfection into mammalian cells.
A general note: In an ELISA, binding on a coated surface is turned into a signal by an enzyme label.

Test [3] has the same target. Nature of the test: ELISA of conditioned medium, HEK293 cells. From the text: These heavy chains were cotransfected into HEK293 cells with L2, and conditioned media was again assayed.
Test [4] has as its target T2, human DLL4, full-length, on the surface of transfected cells (human, UniProt Q9NR61 27-685).
T2 construct: whole, on cells; HEK 293 cells (transient with GFP, or stably transduced) and 3T3 cells overexpressing human DLL4; also called native cell-surface DLL4 protein; Delta-like ligand 4
As to the kind of experiment: FACS on HEK 293 cells co-transfected with full-length DLL4 and GFP.

In test [5] the target is T3, murine DLL4-Fc (murine, UniProt Q9JI71 27-525, limits assumed).
T3 construct: also called m-DLL4; not shown: Fc
T3 sequence (Q9JI71 27-525 limits assumed): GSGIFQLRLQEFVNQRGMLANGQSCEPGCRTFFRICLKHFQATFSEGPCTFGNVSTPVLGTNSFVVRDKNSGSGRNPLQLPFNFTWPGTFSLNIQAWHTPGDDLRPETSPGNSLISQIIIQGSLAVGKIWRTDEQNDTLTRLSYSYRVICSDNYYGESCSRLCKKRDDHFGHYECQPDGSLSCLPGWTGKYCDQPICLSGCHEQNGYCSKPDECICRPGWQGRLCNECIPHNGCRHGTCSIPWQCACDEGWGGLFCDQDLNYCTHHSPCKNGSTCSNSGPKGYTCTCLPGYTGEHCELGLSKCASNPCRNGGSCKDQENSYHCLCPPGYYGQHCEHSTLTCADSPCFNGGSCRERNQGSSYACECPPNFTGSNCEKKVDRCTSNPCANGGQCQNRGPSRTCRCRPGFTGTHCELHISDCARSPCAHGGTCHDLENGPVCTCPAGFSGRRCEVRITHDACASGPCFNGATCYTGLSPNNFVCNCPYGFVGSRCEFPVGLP
Nature of the test: FACS-based assay with human or murine DLL4-Fc (FIG. 2B). From the text:
Binding was detected by fluorescently labeled anti-Fc and analyzed by FACS, with high fluorescence intensity indicative of binding between DLL4 and Notch1 expressing cells.

The target of test [6] is T4, human DLL4 aa 1-251 fused to Fc (human, UniProt Q9NR61 27-251).
T4 construct: Predicted signal peptide 1-26 left out; also called aa 1-251 (printed as 1-251); not shown: Fc protein
As to the kind of experiment: ELISA, Fc fusion captured by anti-human Fc. As to the method:
(§1) To identify antibodies that recognize specific regions of the DLL4 extracellular domain, epitope mapping was performed. Mammalian expression plasmid vectors comprising a CMV promoter upstream of polynucleotides that encode a nested series of deletion fragments of the extracellular domain of DLL4 fused to Fc protein were generated using standard recombinant DNA technology. Additional constructs that encoded fragments of DLL4 that were chimera of human and mouse DLL4 fused to Fc protein were also generated using standard recombinant DNA technology. A further series of DLL4-fc fusion proteins were designed that included specific amino acid substitutions. These recombinant fusion proteins were expressed in transiently transfected HEK 293 cells from which conditioned medium was collected twenty-four to forty-eight hours post-transfection for ELISA. The DLL4 fusion protein fragments were captured on plates coated with anti-human Fc antibodies. Anti-DLL4 antibodies were then allowed to interact with the bound DLL4 fragments and binding was measured by subsequent incubation with HRP conjugated anti-mouse antibody and detection of HRP activity (FIG. 3A). […] Additionally, anti-DLL4 mAbs were examined for binding to DLL4 fusion protein fragments by western blot analysis (FIG. 3B).

Test [7] addresses T5, human DLL4 aa 1-323 fused to Fc (human, UniProt Q9NR61 27-323).
T5 construct: Predicted signal peptide 1-26 left out; also called aa 1-323 (printed as 1-323); not shown: Fc protein
Nature of the test: ELISA, Fc fusion captured by anti-human Fc. How it is done: as §1

The target in test [8] is T6, human DLL4 aa 1-154 fused to Fc (human, UniProt Q9NR61 27-154).
T6 construct: predicted signal peptide 1-26 left out; also called h-DLL4 dom1-2; not shown: Fc protein
As to the kind of experiment: ELISA, Fc fusion captured by anti-human Fc. As to the method: as §1

Test [9] has as its target T7, human DLL4 aa 1-217 fused to Fc (human, UniProt Q9NR61 27-217).
T7 construct: predicted signal peptide 1-26 left out; also called hDLL4dom1-3; not shown: Fc protein
As to the kind of experiment: ELISA, Fc fusion captured by anti-human Fc. As to the method:
as §1

Test [10] addresses T8, human DLL4 aa 1-283 fused to Fc (human, UniProt Q9NR61 27-283).
T8 construct: Predicted signal peptide 1-26 left out; not shown: Fc protein
Nature of the test: ELISA, Fc fusion captured by anti-human Fc. How it is done:
as §1

In test [11] the target is T9, human DLL4 aa 1-96 fused to Fc (human, UniProt Q9NR61 27-96).
T9 construct: Printed as aa 1-96; not shown: Fc protein (human Fc by the capture and detection reagents)
Nature of the test: ELISA, Fc fusion captured by anti-human Fc. How it is done:
as §1

B1: humanized 21M18 variant H2L2 (antibody, V domains shown)
VH: QVQLVQSGAEVKKPGASVKISCKASGYSFTAYYIHWVKQAPGQGLEWIGYISCYNGATNYNQKFKGRVTFTTDTSTSTAYMELRSLRSDDTAVYYCARDYDYDVGMDYWGQGTLVTVSS
VL: DIVMTQSPDSLAVSLGERATISCRASESVDNYGISFMKWFQQKPGQPPKLLIYAASNQGSGVPDRFSGSGSGTDFTLTISSLQAEDVAVYYCQQSKEVPWTFGGGTKVEIK
notes: also called 21M18 H2L2; 21M18 H2 with 21M18 L2
On to B1, for which the Kd in test [1] was approximately 0.33 nM.

B2: 21M18 H2 humanized heavy chain cotransfected with the murine 21M18 light chain (antibody, V domains shown)
VH: B1 VH
VL: not shown
notes: Tested as conditioned medium of HEK 293 cells; heavy chain on human IgG2 constant region; also called 21M18 H2 (with murine 21M18 light chain)
B2: the binding result in [2] is listed as “binds”.

B3: humanized 21M18 H9L2 (antibody, human IgG2, V domains shown)
VH: B1 VH with C53V
VL: B1 VL
notes: Variant of H2 with Kabat 52a Cys changed to Val; also called ATCC PTA-8427
As for B3, in test [3], the binding result is given as “binds”.

B4: humanized 21M18 H7L2 (antibody, human IgG2, V domains shown)
VH: B1 VH with C53S
VL: B1 VL
notes: Variant of H2 with Kabat 52a Cys changed to Ser; also called H7L2 21M18; ATCC PTA-8425
In the case of B4, the binding result in test [3] is “binds”.

B5: murine monoclonal antibody 21M18 (antibody, V domains shown)
VH: EVQLQQSGPELVKTGASVKISCKASGYSFTAYYIHWVKQSHGKSLEWIGYISCYNGATNYNQKFKGKATFTVDTSSSTAFMQFNSLTSEDSAVYYCARDYDYDVGMDYWGQGTSVTVSS
VL: not shown
notes: Hybridoma-derived mouse antibody; both are alignment entries; also called m21M18; anti-DLL4 21M18
With B5, the binding result is listed as “binds” in test [4]; “no binding” in [5]; “binds” in test [6]; “binds” in test [7]; “no binding” in test [8]; “binds” in [9]. Besides, the figures for the binding result in test [10] and in test [11] were “binds” and “no binding”, respectively.

A word on the Kd: it is the concentration at which binding is half-saturated.
